Measured values reported in US9670288B2, “Osteoprotegerin in neuroprotection” (Massachusetts Eye and Ear Infirmary, priority 2011, dated 2017).
Entries after “also recorded” stand apart in the source; their conditions may differ.

Experiments:
Type in all cases: cell-based, mice
ERK kinase [1] = assay: TRAIL induced ERK phosphorylation in cultured Schwann cells (immunoblot); settings: for TRAIL induced ERK phosphorylation / ERK activation: opg −/− Schwann cells, pretreatment, TRAIL 100 ng/ml, OPG 100 ng/l, PD98059 20 nM, zoledronate 10 μM
[2] = test system: spiral ganglion cells (SGCs) / Schwann cells; assay: H2O2 induced oxidative cell death of cultured spiral ganglion cells (nuclear condensation, Hoechst 33342); settings: for H2O2 induced oxidative cell death: opg −/− SGCs/Schwann cells, pretreatment followed by co-treatment, OPG 100 ng/L, PD 98059 20 nM, zoledronate 10 μM, 500 μM H2O2
Schwann cells = assay: TRAIL induced cell death (cleaved caspase 3) in cultured Schwann cells; settings: for TRAIL induced cleaved caspase 3 (cell death): opg −/− Schwann cells, pretreatment, TRAIL 100 ng/ml, OPG 100 ng/l, PD98059 20 nM, zoledronate 10 μM
ERK kinase [3] = assay: H2O2 induced ERK kinase activation in cultured Schwann cells / SGCs (immunoblot, p-ERK); settings: opg −/− Schwann cells; pre-treatment 3 hours and co-treatment; OPG 100 ng/L, PD 98059 20 nM, zoledronate 10 μM; 500 μM H2O2
opg −/− spheres [4] = assay: Apoptosis in floating spiral ganglion spheres (cleaved caspase 3 staining); settings: third generation opg −/− spheres, Rankl 100 ng/ml, OPG 100 ng/ml, zoledronate 1 μM, 3 days, passaged
Protocol: For each experiment, spiral ganglia of four to six 1-3 day old WT or opg −/− mice were dissected in HBSS. The SGCs (neurons and glia) were dissociated using trypsin (0.25%) for 13 min in PBS at 37° C. The enzymatic digestion was stopped by adding 10% FBS in DMEM-high glucose medium. The tissue was washed twice and gently triturated. The cell suspension was passed through a 70 μm cell strainer (BD Labware). Single cells were cultured in DMEM-high glucose and F12 (mixed 1:1) supplemented with N2 and B27 (Invitrogen), EGF (20 ng/mL; Chemicon), bFGF (10 ng/mL; Chemicon), IGF-1 (50 ng/mL; Chemicon), and heparan sulfate (50 ng/mL; Sigma). Newly formed spheres were cultured in ultra-low-cluster plates (Costar) for 4 days and were termed first generation spheres. Spheres were subsequently passaged every 4 days until the third generation, when 5-10 spheres were collected and dissociated (Oshima K, Grimm C M, Corrales C E, Senn P, Martinez Monedero R, Géléoc GS, Edge A, Holt J R, Heller S. 2007. J Assoc Res Otolaryngol. 2007; 8:18-31). Spheres were passaged at a clonal level for 3 more times. Before each passage, the sphere morphology was assessed and the spheres were counted using the Metamorph counting software. At the third generation, spiral ganglion spheres from WT and opg −/− mice were separated into 4 groups and treated with Rankl (100 ng/ml), OPG (100 ng/ml) or zoledronate (1 μM). The control group was untreated. After 3 days of treatment, the spheres were passaged and treated again for 3 days. Twelve hours before plating, proliferating cells in the spheres were labeled with BrdU (3 μg/ml). After 12 hours, the spheres were plated for 1 hour on poly-L-lysine (0.01%, Cultrex)-coated glass coverslips (Marienfeld GmbH, Germany), fixed in 4% paraformaldehyde for 10 min, treated with 1N HCl for antigen retrieval for BrdU staining, incubated for 1 hour in blocking solution (0.3% Triton, 15% goat serum in 1×PBS), and incubated overnight with either anti-cleaved caspase3 antibody to assess cell death, or anti-BrdU antibody to assess cell proliferation. After 3 washing steps with 1×PBS, the spheres were incubated in secondary antibody for 2 hours (568 Alexa Fluor anti rat or anti mouse). Nuclei were stained with DAPI. Staining was visualized by epifluorescence microscopy (Axioskop 2 Mot Axiocam, Zeiss). Counting was done with the Metamorph software.

opg −/− spheres [5] = assay: Proliferation of floating spiral ganglion spheres (BrdU staining); settings: third generation opg −/− spheres, Rankl 100 ng/ml, OPG 100 ng/ml, zoledronate 1 μM, 3 days, passaged
Protocol: For each experiment, spiral ganglia of four to six 1-3 day old WT or opg −/− mice were dissected in HBSS. The SGCs (neurons and glia) were dissociated using trypsin (0.25%) for 13 min in PBS at 37° C. The enzymatic digestion was stopped by adding 10% FBS in DMEM-high glucose medium. The tissue was washed twice and gently triturated. The cell suspension was passed through a 70 μm cell strainer (BD Labware). Single cells were cultured in DMEM-high glucose and F12 (mixed 1:1) supplemented with N2 and B27 (Invitrogen), EGF (20 ng/mL; Chemicon), bFGF (10 ng/mL; Chemicon), IGF-1 (50 ng/mL; Chemicon), and heparan sulfate (50 ng/mL; Sigma). Newly formed spheres were cultured in ultra-low-cluster plates (Costar) for 4 days and were termed first generation spheres. Spheres were subsequently passaged every 4 days until the third generation, when 5-10 spheres were collected and dissociated (Oshima K, Grimm C M, Corrales C E, Senn P, Martinez Monedero R, Géléoc GS, Edge A, Holt J R, Heller S. 2007. J Assoc Res Otolaryngol. 2007; 8:18-31). Spheres were passaged at a clonal level for 3 more times. Before each passage, the sphere morphology was assessed and the spheres were counted using the Metamorph counting software. At the third generation, spiral ganglion spheres from WT and opg −/− mice were separated into 4 groups and treated with Rankl (100 ng/ml), OPG (100 ng/ml) or zoledronate (1 μM). […]

p38, JNK or NF-κB p65 = assay: p38, JNK and NF-κB p65 activity after TRAIL in cultured Schwann cells (immunoblot); settings: opg −/− Schwann cells treated with TRAIL

| Molecule | TRAIL induced ERK phosphorylation / ERK activation (ERK kinase [1]) | H2O2 induced oxidative cell death [2] | TRAIL induced cleaved caspase 3 (cell death) (Schwann cells) | H2O2 induced ERK kinase activation (ERK kinase [3]) | apoptosis in opg−/− spheres (number of cleaved caspase 3 positive cells) (opg −/− spheres [4]) | proliferation of opg−/− spheres (number of BrdU positive cells) (opg −/− spheres [5]) | cell death without H2O2 treatment ([2]; opg −/− SGCs, no H2O2) | apoptosis in opg−/− spheres (number of cleaved caspase 3 positive cells) (opg −/− spheres [4]; listed as Rankl) | p38, JNK or NF-κB p65 activity after TRAIL (p38, JNK or NF-κB p65) | ERK phosphorylation caused by TRAIL itself (ERK kinase [1]; cells treated with TRAIL (100 ng/ml)) | cleavage of caspase 3 / cell death caused by TRAIL itself (Schwann cells; Schwann cells treated with recombinant TRAIL (100 ng/ml)) |
| --- | --- | --- | --- | --- | --- | --- | --- | --- | --- | --- | --- |
| COc1cccc(-c2cc(=O)c3ccccc3o2)c1N [PD 98059, reference compound] | suppressed | rescued | suppressed | suppressed |  |  |  |  |  |  |  |
| O=P(O)(O)C(O)(Cn1ccnc1)P(=O)(O)O [zoledronate, reference compound] | suppressed | rescued | suppressed | suppressed | reduced; also recorded: decreased | significantly enhanced; also recorded: increased |  |  |  |  |  |
| OPG: Osteoprotegerin, cytokine receptor of the TNF receptor superfamily; recombinant protein from R & D Systems (protein, homo sapiens OPG, Osteoprotegerin, cytokine receptor of the TNF receptor superfamily; recombinant protein from R & D Systems) MNNLLCCALVFLDISIKWTTQETFPPKYLHYDEETSHQLLCDKCPPGTYLKQHCTAKWKTVCAPCPDHYYTDSWHTSDECLYCSPVCKELQYVKQECNRTHNRVCECKEGRYLEIEFCLKHRSCPPGFGVVQAGTPERNTVCKRCPDGFFSNETSSKAPCRKHTNCSVFGLLLTQKGNATHDNICSGNSESTQKCGIDVTLCEEAFFRFAVPTKFTPNWLSVLVDNLPGTKVNAESVERIKRQHSSQEQTFQLLKLWKHQNKDQDIVKKIIQDIDLCENSVQRHIGHANLTFEQLRSLMESLPGKKVGAEDIEKTIKACKPSDQILKLLSLWRIKNGDQDTLKGLMHALKHSKTYHFPKTVTQSLKKTIRFLHSFTMYKLYQKLFLEMIGNQVQSVKISCL | suppressed | rescued | suppressed | suppressed | reduced; also recorded: decreased | significantly enhanced; also recorded: increased | did not significantly affect |  |  |  |  |
| RANKL: RANK ligand, from R & D Systems (protein, UniProt O14788 140-317, looked up) Tumor necrosis factor ligand …: IRAEKAMVDGSWLDLAKRSKLEAQPFAHLTINATDIPSGSHKVSLSSWYHDRGWAKISNMTFSNGKLIVNQDGFYYLYANICFRHHETSGDLATEYLQLMVYVTKTSIKIPSSHTLMKGGSTKYWSGNSEFHFYSINVGGFFKLRSGEEISIEVSNPSLLDPDQDATYFGAFKVRDID |  |  |  |  | significantly increased |  |  | increased |  |  |  |
| TRAIL: TNF-related apoptosis-inducing ligand, recombinant (protein, UniProt P50591 1-281, looked up) Tumor necrosis factor ligand …: MAMMEVQGGPSLGQTCVLIVIFTVLLQSLCVAVTYVYFTNELKQMQDKYSKSGIACFLKEDDSYWDPNDEESMNSPCWQVKWQLRQLVRKMILRTSEETISTVQEKQQNISPLVRERGPQRVAAHITGTRGRSNTLSSPNSKNEKALGRKINSWESSRSGHSFLSNLHLRNGELVIHEKGFYYIYSQTYFRFQEEIKENTKNDKQMVQYIYKYTSYPDPILLMKSARNSCWSKDAEYGLYSIYQGGIFELKENDRIFVSVTNEHLIDMDHEASFFGAFLVG |  |  |  |  |  |  |  |  | did not affect | activated | increased; also recorded: induced cell death |
